Target: IGF2 (Homo sapiens, UniProt P01344)
Assay: SPR (Biacore T200) of recombinant IGF2R domain 11 mutants on immobilised biotinylated IGF2
Assay type: binding
Set-up: purchased GroPep
Conditions: for off rate / koff (figure legend) / on rate / kon (figure legend): FIG. 2, 3
From the text: Surface plasmon resonance (SPR) binding analysis of recombinant M6P/IGF2R domain 11 mutants interaction with IGF2. Kon indicates association (on) rate; koff, dissociation (off) rate; RU, response units. Binding to IGF2 assessed with BIAcore T200 using purified biotinylated IGF2 and IGF1 on a streptavidin biosensor chip. Recombinant proteins were expressed either in E. coli and/or P. pastoris. All the mutants in the FG and CD loops are on the domain 11^AB5 background for the AB loop unless otherwise stated. All experiments were carried out at 25° C. in HBS-EP buffer (pH 7.4), were repeated 2-5 times on two independent BIAcore chips. nd=not determined. Data for KD expressed as mean of each experiment, and means of kon and koff are shown.
Measurements were carried out at 25° C. in HBS-EP buffer (pH 7.4) (nd=not determined, np=no protein). Data for KD expressed as mean of each experiment, and means of kon and koff are shown.
Measurements were carried out at 25° C. in MES-EP buffer, 20 mM MES pH 6.5, 150 mM NaCl, 3 mM EDTA, and 0.005% (v/v) surfactant P20). Data for KD expressed as mean of each experiment, and means of kon and koff are shown.
Final kinetic analysis of mutants by SPR was conducted using a Biacore T200 biosensor at 25° C. in either HBS-EP (10 mM HEPES pH 7.4, 150 mM NaCl, 3 mM EDTA, and 0.005% (v/v) surfactant P20) or MES-EP (20 mM MES pH 6.5, 150 mM NaCl, 3 mM EDTA, and 0.005% (v/v) surfactant P20) at a flow-rate of 40 μL min^−1. […] For the analysis of the Fc-domain 11^AB5 interaction, approximately 50 RU of a biotinylated IGF2:biotinylated ubiquitin mixture (1:8 proportion) was immobilized on the CM5-streptavidin chip. This interaction was also analysed by immobilizing the Fc-domain 11^AB5 and Fc-domain 11^AB5-RHH (or Fc-domain 11^I1572A as control) by Human Antibody Capture (monoclonal mouse anti-human IgG antibody immobilised on a CM5 chip by amine coupling, GE Healthcare) with and without human IgG1 Fc fragment (Bethyl Laboratories, UK) in the control flow cell. Increasing concentrations of IGF2^1-67, proIGF2^1-104, proIGF2^1-156 and IGF1 ranging from 0.125 to 32 nM were injected. T200 BiaEvaluation software (GE Healthcare) was used to fit the resulting curves according to a 1:1 binding model. Steady state affinities were determined using the kinetic data, taking the response average at 5 seconds before injection end and for 5 seconds average. Thermodynamic data was performed across the temperature range of 10° C. to 30° C., van't Hoff and Erying plots generated and ΔH, −TΔS and ΔG values determined as previously described.

Chain of IGF2 (P01344 25-91): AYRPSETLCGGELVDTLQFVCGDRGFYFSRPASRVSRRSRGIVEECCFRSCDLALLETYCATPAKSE

Kinetics koff (Table 1, 25° C., HBS-EP pH 7.4)	Kinetics kon (Table 1, 25° C., HBS-EP pH 7.4)	Molecule	other results
0.0034 s⁻¹	1.18e+06 M⁻¹ s⁻¹	K1631W: domain 11 HI loop mutant K1631W, probably AB5 background (protein) MKSNEHDDCQVTNPSTGHLFDLSSLSGRAGFTAAYAKGWGVYMSICGENENCPPGVGACFGQTRISVGKANKRLRYVDQVLQLVYKDGSPCPSKSGLSYKSVISFVCRPEAGPTNRPMLISLDWQTCTLFFSWHTPLACEQATECSV	Kd (pH 7.4): 3.23 nM
		AB3 Q1569R P1597H S1602H G1603K: domain 11 AB3 + Q1569R, P1597H, S1602H, G1603K (protein) MKSNEHDDCQVTNPSTGHLFDLSSLSGRAGFTAAYSKSGVVYMSICGENENCPPGVGACFGRTRISVGKANKRLRYVDQVLQLVYKDGSHCPSKHKLSYKSVISFVCRPEAGPTNRPMLISLDKQTCTLFFSWHTPLACEQATECSV	off rate / koff (figure legend): 0.0108 s⁻¹; on rate / kon (figure legend): 1.75e+07 M⁻¹ s⁻¹; Kinetics koff (Table 3, 25° C., HBS-EP pH 7.4): 0.0108 s⁻¹; Kinetics kon (Table 3, 25° C., HBS-EP pH 7.4): 1.75e+07 M⁻¹ s⁻¹; Kinetics koff (Table 4, MES-EP pH 6.5): 0.0087 s⁻¹; Kinetics kon (Table 4, MES-EP pH 6.5): 2.43e+07 M⁻¹ s⁻¹
0.0251 s⁻¹	5.28e+06 M⁻¹ s⁻¹	K1601R: domain 11 AB5 background + FG loop K1601R (protein) MKSNEHDDCQVTNPSTGHLFDLSSLSGRAGFTAAYAKGWGVYMSICGENENCPPGVGACFGQTRISVGKANKRLRYVDQVLQLVYKDGSPCPSRSGLSYKSVISFVCRPEAGPTNRPMLISLDKQTCTLFFSWHTPLACEQATECSV	
0.0112 s⁻¹	2.38e+06 M⁻¹ s⁻¹	S1602N: domain 11 AB5 background + FG loop S1602N (protein) MKSNEHDDCQVTNPSTGHLFDLSSLSGRAGFTAAYAKGWGVYMSICGENENCPPGVGACFGQTRISVGKANKRLRYVDQVLQLVYKDGSPCPSKNGLSYKSVISFVCRPEAGPTNRPMLISLDKQTCTLFFSWHTPLACEQATECSV	
0.2126 s⁻¹	2.39e+06 M⁻¹ s⁻¹	S1600A: domain 11 AB5 background + FG loop S1600A (protein) MKSNEHDDCQVTNPSTGHLFDLSSLSGRAGFTAAYAKGWGVYMSICGENENCPPGVGACFGQTRISVGKANKRLRYVDQVLQLVYKDGSPCPAKSGLSYKSVISFVCRPEAGPTNRPMLISLDKQTCTLFFSWHTPLACEQATECSV	
>0.2 s⁻¹		S1600L: domain 11 AB5 background + FG loop S1600L (protein) MKSNEHDDCQVTNPSTGHLFDLSSLSGRAGFTAAYAKGWGVYMSICGENENCPPGVGACFGQTRISVGKANKRLRYVDQVLQLVYKDGSPCPLKSGLSYKSVISFVCRPEAGPTNRPMLISLDKQTCTLFFSWHTPLACEQATECSV	
>0.2 s⁻¹		S1600Y: domain 11 AB5 background + FG loop S1600Y (protein) MKSNEHDDCQVTNPSTGHLFDLSSLSGRAGFTAAYAKGWGVYMSICGENENCPPGVGACFGQTRISVGKANKRLRYVDQVLQLVYKDGSPCPYKSGLSYKSVISFVCRPEAGPTNRPMLISLDKQTCTLFFSWHTPLACEQATECSV	
0.0910 s⁻¹	3.95e+06 M⁻¹ s⁻¹	S1600N: domain 11 AB5 background + FG loop S1600N (protein) MKSNEHDDCQVTNPSTGHLFDLSSLSGRAGFTAAYAKGWGVYMSICGENENCPPGVGACFGQTRISVGKANKRLRYVDQVLQLVYKDGSPCPNKSGLSYKSVISFVCRPEAGPTNRPMLISLDKQTCTLFFSWHTPLACEQATECSV	
>0.2 s⁻¹		S1600V: domain 11 AB5 background + FG loop S1600V (protein) MKSNEHDDCQVTNPSTGHLFDLSSLSGRAGFTAAYAKGWGVYMSICGENENCPPGVGACFGQTRISVGKANKRLRYVDQVLQLVYKDGSPCPVKSGLSYKSVISFVCRPEAGPTNRPMLISLDKQTCTLFFSWHTPLACEQATECSV	
0.0220 s⁻¹	3.26e+06 M⁻¹ s⁻¹	K1601A: domain 11 AB5 background + FG loop K1601A (protein) MKSNEHDDCQVTNPSTGHLFDLSSLSGRAGFTAAYAKGWGVYMSICGENENCPPGVGACFGQTRISVGKANKRLRYVDQVLQLVYKDGSPCPSASGLSYKSVISFVCRPEAGPTNRPMLISLDKQTCTLFFSWHTPLACEQATECSV	
>0.2 s⁻¹		P1599G: domain 11 FG loop mutant P1599G, AB5 background unless otherwise stated (protein) MKSNEHDDCQVTNPSTGHLFDLSSLSGRAGFTAAYAKGWGVYMSICGENENCPPGVGACFGQTRISVGKANKRLRYVDQVLQLVYKDGSPCGSKSGLSYKSVISFVCRPEAGPTNRPMLISLDKQTCTLFFSWHTPLACEQATECSV	
		AB5 Q1569R P1597H S1602H: domain 11 AB5 + Q1569R, P1597H, S1602H (AB5-RHH) (protein) MKSNEHDDCQVTNPSTGHLFDLSSLSGRAGFTAAYAKGWGVYMSICGENENCPPGVGACFGRTRISVGKANKRLRYVDQVLQLVYKDGSHCPSKHGLSYKSVISFVCRPEAGPTNRPMLISLDKQTCTLFFSWHTPLACEQATECSV	off rate / koff (figure legend): 0.0038 s⁻¹; on rate / kon (figure legend): 5.9e+06 M⁻¹ s⁻¹; Kinetics koff (Table 3, 25° C., HBS-EP pH 7.4): 0.0038 s⁻¹; Kinetics kon (Table 3, 25° C., HBS-EP pH 7.4): 5.9e+06 M⁻¹ s⁻¹; Kinetics koff (Table 4, MES-EP pH 6.5): 0.0030 s⁻¹; Kinetics kon (Table 4, MES-EP pH 6.5): 4.41e+06 M⁻¹ s⁻¹
>0.1 s⁻¹		P1599V: domain 11 FG loop mutant P1599V, AB5 background unless otherwise stated (protein) MKSNEHDDCQVTNPSTGHLFDLSSLSGRAGFTAAYAKGWGVYMSICGENENCPPGVGACFGQTRISVGKANKRLRYVDQVLQLVYKDGSPCVSKSGLSYKSVISFVCRPEAGPTNRPMLISLDKQTCTLFFSWHTPLACEQATECSV	
>0.1 s⁻¹		P1599A: domain 11 FG loop mutant P1599A, AB5 background unless otherwise stated (protein) MKSNEHDDCQVTNPSTGHLFDLSSLSGRAGFTAAYAKGWGVYMSICGENENCPPGVGACFGQTRISVGKANKRLRYVDQVLQLVYKDGSPCASKSGLSYKSVISFVCRPEAGPTNRPMLISLDKQTCTLFFSWHTPLACEQATECSV	
0.0112 s⁻¹	3.61e+06 M⁻¹ s⁻¹	S1602H: domain 11 AB5 background + FG loop S1602H (protein) MKSNEHDDCQVTNPSTGHLFDLSSLSGRAGFTAAYAKGWGVYMSICGENENCPPGVGACFGQTRISVGKANKRLRYVDQVLQLVYKDGSPCPSKHGLSYKSVISFVCRPEAGPTNRPMLISLDKQTCTLFFSWHTPLACEQATECSV	
0.0250 s⁻¹	1.57e+06 M⁻¹ s⁻¹	S1602A: domain 11 AB5 background + FG loop S1602A (protein) MKSNEHDDCQVTNPSTGHLFDLSSLSGRAGFTAAYAKGWGVYMSICGENENCPPGVGACFGQTRISVGKANKRLRYVDQVLQLVYKDGSPCPSKAGLSYKSVISFVCRPEAGPTNRPMLISLDKQTCTLFFSWHTPLACEQATECSV	

From patent US10494415B2, “Insulin-like growth factor 2 (IGF2) binding agents” (Cancer Research Technology Limited, priority 2015, dated 2019)
